Measurements from patent publication US20110217237A1 (AbbVie / Abbott, published 2011).
Residue numbers refer to the chain shown, from its start.

B1: h38H12.1 (antibody, V domains shown)
VH: EVQLVESGGGVVQPGRSLRLSCAASGFTFSNYGMYWVRQAPGKGLEWVAFISHGGGITYYRDSVKGRFTISRDNSKNTLYLQMNSLRAEDTAVYYCARLNWELGIDYWGQGTMVTVSS
VL: DIQMTQSPSSLSASVGDRVTITCRASEDIYSNLAWYQQKPGKAPKLLIYAANRLQDGVPSRFSGSGSGTDFTLTISSLQPEDFATYYCLQGSKFPLTFGQGTKLEIKR
notes: humanized IgG; also called VH.1/VL.1 38H12
B2: h38H12.3 (antibody, V domains shown)
VH: B1 VH
VL: B1 VL with F71Y
notes: humanized IgG; also called VH.1/VL.1b 38H12
B3: h38H12.2 (antibody, V domains shown)
VH: B1 VH
VL: B1 VL with Q38K, A43S, F71Y, Y87F
notes: humanized IgG; also called VH.1/VL.1a 38H12
B4: h38H12.4 (antibody, V domains shown)
VH: B1 VH
VL: EIVMTQSPATLSVSPGERATLSCRASEDIYSNLAWYQKKPGQSPRLLIYAANRLQDGVPARFSGSGSGTEYTLTISSLQSEDFAVYFCLQGSKFPLTFGQGTKLEIKR
notes: humanized IgG; also called VH.1/VL.2a 38H12
B5: h1A11.11 (antibody, V domains shown)
VH: EVQLVESGGGLVQPGGSLRLSCAASGFTFSNFPMAWVRQAPGKGLEWVATISSSDGTTYYRDSVKGRFTISRDNAKNSLYLQMNSLRAEDTAVYYCSRGYYNSPFAYWGQGTLVTVSS
VL: DIQMTQSPSSLSASVGDRVTITCRASEDIYSNLAWYQQKPGKAPKLLIFDTNNLADGVPSRFSGSGSGTDFTLTISSLQPEDFATYYCQQYNNYPPTFGQGTKLEIKR
notes: humanized IgG; also called VH.1b/VL.1b 1A11
B6: h1A11.12 (antibody, V domains shown)
VH: B5 VH
VL: EIVMTQSPATLSVSPGERATLSCRASEDIYSNLAWYQQKPGQSPRLLIFDTNNLADGVPARFSGSGSGTESTLTISSLQSEDFAVYFCQQYNNYPPTFGQGTKLEIKR
notes: humanized IgG; also called VH.1b/VL.2a 1A11
B7: h1A11.15 (antibody, V domains shown)
VH: B5 VH with A75S, N77S, S78T
VL: B5 VL
notes: humanized IgG; also called VH.2a/VL.1b 1A11
B8: h1A11.13 (antibody, V domains shown)
VH: B5 VH with A75S, N77S, S78T
VL: B5 VL with F49Y
notes: humanized IgG; also called VH.2a/VL.1 1A11
B9: h1A11.16 (antibody, V domains shown)
VH: B5 VH with A75S, N77S, S78T
VL: B6 VL
notes: humanized IgG; also called VH.2a/VL.2a 1A11
B10: h1A11.10 (antibody, V domains shown)
VH: B5 VH
VL: B5 VL with A43S, F71S, Y87F
notes: humanized IgG; also called VH.1b/VL.1a 1A11
B11: h1A11.14 (antibody, V domains shown)
VH: B5 VH with A75S, N77S, S78T
VL: B5 VL with A43S, F71S, Y87F
notes: humanized IgG; also called VH.2a/VL.1a 1A11
B12: h1A11.B5 (antibody, V domains shown)
VH: B5 VH with S30R, N31Y, A35S, T50S, S53G, T57W, T58A, Y59S, S97A, Y107S
VL: DIQMTQSPSSLSASVGDRVTITCRASQDIWNNLAWYQQKPGKSPKLLIFDTSYLADGVPSRFSGSGSGTDFTLTISSLQPEDFATYYCQQYDWYPPTFGQGTKLEIK
notes: also called h1A11.B5 VH / h1A11.B5 VL

The binders below were run against T1, human DLL4 extracellular domain (human, UniProt Q9NR61 27-529) (assay: capture ELISA, biotin-huDLL4 ECD).
T1 construct: purified recombinant ECD; biotin-labelled or 6xHis-tagged depending on the assay; also called huDLL4 ECD; hu DLL4 ECD
T1 sequence (Q9NR61 27-529 limits assumed): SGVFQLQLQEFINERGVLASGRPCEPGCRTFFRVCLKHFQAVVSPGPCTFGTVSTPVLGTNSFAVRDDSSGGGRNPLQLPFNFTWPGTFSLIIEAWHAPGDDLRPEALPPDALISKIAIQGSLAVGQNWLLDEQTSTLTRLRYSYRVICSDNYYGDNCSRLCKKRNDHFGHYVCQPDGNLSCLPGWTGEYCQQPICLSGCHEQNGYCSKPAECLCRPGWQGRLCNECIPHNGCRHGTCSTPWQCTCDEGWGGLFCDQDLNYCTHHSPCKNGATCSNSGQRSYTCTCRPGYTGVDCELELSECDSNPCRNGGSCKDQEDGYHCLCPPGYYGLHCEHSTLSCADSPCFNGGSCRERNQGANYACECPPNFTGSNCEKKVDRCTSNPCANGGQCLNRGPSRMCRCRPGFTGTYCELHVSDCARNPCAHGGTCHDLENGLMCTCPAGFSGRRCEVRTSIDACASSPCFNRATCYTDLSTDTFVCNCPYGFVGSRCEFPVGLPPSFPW

| Binder | EC50 |
| --- | --- |
| B1 | 21.5 nM |
| B2 | 5.57 nM |
| B3 | 26.9 nM |
| B4 | 20.6 nM |

These binders were tested against T2, mouse DLL4 extracellular domain (mouse, UniProt Q9JI71 27-532) (assay: binding ELISA).
T2 construct: extracellular domain; also called muDLL4 ECD; murine DLL4
T2 sequence (Q9JI71 27-532): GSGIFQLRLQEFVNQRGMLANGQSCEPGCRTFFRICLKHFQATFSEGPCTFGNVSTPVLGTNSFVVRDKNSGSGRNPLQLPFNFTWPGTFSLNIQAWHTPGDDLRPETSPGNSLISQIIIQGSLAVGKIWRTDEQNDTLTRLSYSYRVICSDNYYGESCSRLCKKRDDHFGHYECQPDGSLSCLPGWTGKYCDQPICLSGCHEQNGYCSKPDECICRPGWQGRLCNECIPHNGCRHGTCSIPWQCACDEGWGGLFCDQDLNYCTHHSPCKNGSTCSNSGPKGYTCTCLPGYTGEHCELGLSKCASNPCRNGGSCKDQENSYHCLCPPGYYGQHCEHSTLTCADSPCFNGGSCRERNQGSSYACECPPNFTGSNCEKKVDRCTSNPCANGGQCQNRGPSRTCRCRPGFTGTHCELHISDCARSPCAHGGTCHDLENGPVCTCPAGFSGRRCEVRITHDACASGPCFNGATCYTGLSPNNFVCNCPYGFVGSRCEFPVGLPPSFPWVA
Protocol: (§1) Plates were then washed 3 times. 100 μl/well of recombinant rat/human chimeric or recombinant human anti-DLL4 antibodies were then added to the plate (0.00164-27 nM, 4-fold serial dilution in ELISA buffer=PBST, 10% Superblock (Pierce #37515)) for 1 hour at 25° C. with shaking and then washed again 3 times. Plates were incubated with goat anti-human HRP (Pierce #31412) (1:40,000 dilution in ELISA buffer, 100 μl/well) for 1 hour at 25° C. with shaking, then washed 3 times. After the final wash, plates were incubated with 100 μl/well ELISA substrate (Sigma #T8665). The reaction was stopped after 8 minutes at 25° C. with 100 μl/well 1N HCl and the absorbance was read at 450 nm. Data were analyzed using Graphpad Prism software, and EC50 values were reported.
(§2) Purified variants were further characterized for their affinities for human, murine and cynomolgus DLL4 by binding ELISA (Example 1.2, Method 2), by Biacore (Example 1.1), and by Flow Cytometry (FACS). […] The humanized variants were then tested for their functionality with human and murine DLL4 by competition ELISA (Example 1.3) and by Notch reporter assay (Example 1.6).

| Binder | EC50 |
| --- | --- |
| B5 | 0.09 nM |
| B6 | 0.08 nM |
| B7 | 0.09 nM |
| B8 | 0.09 nM |
| B9 | 0.09 nM |
| B10 | 0.09 nM |
| B11 | 0.07 nM |

What follows are binders tested against T3, cynomolgus monkey DLL4 extracellular domain (cynomolgus monkey) (assay: binding ELISA).
T3 construct: extracellular domain; also called cynoDLL4 ECD; Cyno DLL4
Protocol: as §1, §2

| Binder | EC50 |
| --- | --- |
| B5 | 0.15 nM |
| B6 | 0.16 nM |
| B7 | 0.13 nM |
| B8 | 0.16 nM |
| B9 | 0.12 nM |
| B10 | 0.15 nM |
| B11 | 0.14 nM |

These binders were tested against T1, human DLL4 extracellular domain (assay: binding ELISA).
Protocol: as §1, §2

| Binder | EC50 |
| --- | --- |
| B5 | 0.07 nM |
| B6 | 0.06 nM |
| B7 | 0.07 nM |
| B8 | 0.06 nM |
| B9 | 0.06 nM |
| B10 | 0.06 nM |
| B11 | 0.055 nM |

Each binder was assayed against T4, human DLL4, full length, on cells (human, UniProt Q9NR61 27-685) (assay: cell-based or functional assay).
T4 sequence (Q9NR61 27-685 limits assumed): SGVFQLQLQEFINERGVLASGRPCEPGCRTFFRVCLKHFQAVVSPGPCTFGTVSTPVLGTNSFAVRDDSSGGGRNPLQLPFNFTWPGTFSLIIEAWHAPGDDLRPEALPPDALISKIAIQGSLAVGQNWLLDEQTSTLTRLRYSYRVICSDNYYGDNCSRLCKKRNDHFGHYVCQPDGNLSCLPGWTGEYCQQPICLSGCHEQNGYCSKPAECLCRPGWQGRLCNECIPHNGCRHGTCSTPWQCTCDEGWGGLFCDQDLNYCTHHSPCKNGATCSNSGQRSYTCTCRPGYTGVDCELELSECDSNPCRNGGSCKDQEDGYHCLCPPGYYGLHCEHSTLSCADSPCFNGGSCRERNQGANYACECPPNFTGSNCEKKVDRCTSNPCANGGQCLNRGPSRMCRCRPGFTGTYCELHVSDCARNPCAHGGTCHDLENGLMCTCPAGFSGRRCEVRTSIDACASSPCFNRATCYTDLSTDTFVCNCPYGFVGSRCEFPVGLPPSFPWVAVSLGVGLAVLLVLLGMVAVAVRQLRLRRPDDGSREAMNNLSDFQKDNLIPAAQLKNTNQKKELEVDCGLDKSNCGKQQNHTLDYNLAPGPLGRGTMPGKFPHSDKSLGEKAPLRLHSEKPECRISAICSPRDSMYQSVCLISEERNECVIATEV

| Binder | Reporter Assay (EC50, nM) |
| --- | --- |
| B5 | 3.73 nM |
| B6 | 2.89 nM |
| B7 | 5.4 nM |
| B8 | 10.4 nM |
| B9 | 2.61 nM |
| B10 | 5.88 nM |
| B11 | 4.1 nM |

Each binder was assayed against T3, cynomolgus monkey DLL4 extracellular … (assay: SPR (Biacore)).
Protocol: (§3) The BIACORE® surface plasmon resonance assay (Biacore, Inc., Piscataway, N.J., US) determines the affinity of antibodies with kinetic measurements of on-rate and off-rate constants. Binding of DLL4 antibodies to a purified recombinant DLL4 extracellular domain (ECD) was determined by surface plasmon resonance-based measurements with a Biacore® instrument (either a Biacore 2000, Biacore 3000, or Biacore T100; GE Healthcare, Piscataway, N.J., US) using running buffer HBS-EPB (10 mM HEPES [pH 7.4], 150 mM NaCl, 3 mM EDTA, 0.1 mg/ml BSA and 0.005% surfactant P20) at 25° C. For example, approximately 9000 RU of goat anti-human Fc specific polyclonal antibody (Thermo Fisher Scientific Inc., Rockford, Ill., US) diluted in 10 mM sodium acetate (pH 4.5) is directly immobilized across a CMS research grade biosensor chip using a standard amine coupling kit according to manufacturer's instructions and procedures at 25 μg/ml. Unreacted moieties on the biosensor surface were blocked with ethanolamine. For kinetic analysis, rate equations derived from the 1:1 Langmuir binding model were fitted simultaneously to multiple antigen injections (using global fit analysis) with the use of Scrubber 2 (BioLogic Software), Biacore Biaevaluation 4.0.1 software or Biacore T100 Evaluation software. Purified antibodies were diluted in running buffer for capture across goat anti-human Fc reaction surfaces. Antibodies to be captured as a ligand (1 μg/ml) were injected over reaction matrices at a flow rate of 10 μl/min. During the assay, all measurements were referenced against the capture surface alone (i.e., with no captured anti-DLL4 antibody). […] The equilibrium dissociation constant KD (M) of the reaction between antibodies and the target antigen was then calculated from the kinetic rate constants by the following formula: KD=Koff/Kₒₙ. Binding was recorded as a function of time and kinetic rate constants were calculated.

| Binder | Kd | koff | kon |
| --- | --- | --- | --- |
| B12 | 1.5 nM | 0.000178 s⁻¹ | 117000 M⁻¹ s⁻¹ |

Each binder was assayed against T1, human DLL4 extracellular domain (assay: SPR (Biacore)).
Protocol: as §3

| Binder | Kd | koff | kon |
| --- | --- | --- | --- |
| B12 | 1 nM | 0.000134 s⁻¹ | 130000 M⁻¹ s⁻¹ |

What follows are binders tested against T2, mouse DLL4 extracellular domain (assay: competition ELISA vs Notch-1).
Protocol: (§4) Plates were then washed 3 times with wash buffer (PBS, 0.05% Tween-20) and blocked with 200 μl/well blocking buffer (D-PBS, 1% BSA, 1 mM CaCl₂, 0.05% Tween-20) for 1 hour at 25° C. While blocking, biotin labeled DLL4 extracellular domain (14 nM) was mixed with antibody (30 pM-66 nM, 3-fold serial dilution in blocking buffer) for 1 hour at 25° C. with shaking. Assay plates were washed after blocking, and incubated with DLL4/antibody mixtures (100 μl/well, 1 hour at 25° C. with shaking). Plates were washed again and 100 μl/well streptavidin conjugated with HRP (Fitzgerald #65R-S104PHRPx, diluted 1:5,000 in blocking buffer) was added for 1 hour at 25° C. with shaking. After a final wash, plates were developed using 100 μl/well substrate (TMB Sigma #T8665), and the reaction was stopped using 100 μl/well 1N HCl, and the absorbance was read at 450 nm. Data were analyzed using Graphpad Prism software and IC₅₀ values were reported as the concentration of antibody to achieve 50% reduction of DLL4 bound to Notch1.
as §2

| Binder | IC50 |
| --- | --- |
| B5 | 0.8 nM |
| B6 | 0.9 nM |
| B7 | 0.7 nM |
| B8 | 1 nM |
| B9 | 0.7 nM |
| B10 | 0.9 nM |
| B11 | 0.7 nM |

The binders below were run against T1, human DLL4 extracellular domain (assay: competition ELISA vs Notch-1).
Protocol: as §4, §2

| Binder | IC50 |
| --- | --- |
| B5 | 0.4 nM |
| B6 | 0.4 nM |
| B7 | 0.2 nM |
| B8 | 0.3 nM |
| B9 | 0.3 nM |
| B10 | 0.35 nM |
| B11 | 0.25 nM |

What follows are binders tested against T2, mouse DLL4 extracellular domain (assay: SPR (Biacore)).
Protocol: as §3

| Binder | Kd |
| --- | --- |
| B5 | 27 nM |
| B6 | 35 nM |
| B7 | 37 nM |
| B8 | 37 nM |
| B9 | 39 nM |
| B10 | 35 nM |
| B11 | 28 nM |

Target: T1, human DLL4 extracellular domain
Test: SPR (Biacore)
Remark: another data set of the same source
Protocol: as §3

| Binder | Kd |
| --- | --- |
| B5 | 12 nM |
| B6 | 14 nM |
| B7 | 14 nM |
| B8 | 14 nM |
| B9 | 15 nM |
| B10 | 13 nM |
| B11 | 13 nM |

Each binder was assayed against T4, human DLL4, full length, on cells (assay: FACS, DLL4 cells).
Protocol: Stable cell lines overexpressing cell-surface DLL4 were harvested from tissue culture flasks, washed four times and resuspended in phosphate buffered saline (PBS) containing 1% bovine serum albumin and 1 mM CaCl₂ (FACS buffer). 1.5×10⁵ cells were incubated with antibodies at various concentrations in FACS buffer for 60 minutes on ice. […] Following an incubation on ice (4° C., 60 minutes), cells were washed three times and resuspended in FACS buffer. Fluorescence was measured using a Becton Dickinson FACSCalibur-HTS (Becton Dickinson, San Jose, Calif., US). Data were analyzed using Graphpad Prism software and EC₅₀ values were reported as the concentration of antibody to achieve 50% of maximal DLL4 antibodies binding to DLL4 expressing cells.
The good binder variants, as determined by binding ELISA, were assessed by Biacore (Example 1.1) concurrently with cell based assay screens. The KD for human DLL4 was similar for all variants (see, Biacore, KD in Table 18, below).

| Binder | EC50 |
| --- | --- |
| B1 | 17.8 nM |

Each binder was assayed against T5, rat DLL4 extracellular domain (rat, UniProt D3ZHH1 28-530) (assay: SPR (Biacore)).
T5 construct: extracellular domain; also called ratDLL4 ECD
T5 sequence (D3ZHH1 28-530): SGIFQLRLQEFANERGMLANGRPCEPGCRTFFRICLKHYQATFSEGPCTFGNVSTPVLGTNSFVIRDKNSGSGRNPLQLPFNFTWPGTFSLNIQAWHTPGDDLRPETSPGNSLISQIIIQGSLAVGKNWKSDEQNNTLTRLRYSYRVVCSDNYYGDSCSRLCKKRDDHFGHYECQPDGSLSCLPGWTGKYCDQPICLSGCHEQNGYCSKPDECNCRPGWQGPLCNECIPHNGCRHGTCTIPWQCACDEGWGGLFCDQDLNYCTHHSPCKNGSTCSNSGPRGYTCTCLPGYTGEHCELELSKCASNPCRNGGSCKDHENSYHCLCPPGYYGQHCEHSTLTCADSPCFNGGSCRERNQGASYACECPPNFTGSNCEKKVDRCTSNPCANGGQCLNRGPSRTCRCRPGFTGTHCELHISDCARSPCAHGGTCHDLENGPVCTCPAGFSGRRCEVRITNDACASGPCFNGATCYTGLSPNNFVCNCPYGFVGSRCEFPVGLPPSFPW
Protocol: as §3

| Binder | Kd | koff | kon |
| --- | --- | --- | --- |
| B12 | 410 nM | 0.0397 s⁻¹ | 98200 M⁻¹ s⁻¹ |

Target: T2, mouse DLL4 extracellular domain
Test: SPR (Biacore)
Remark: another data set of the same source
Protocol: as §3

| Binder | Kd | koff | kon |
| --- | --- | --- | --- |
| B12 | 1.2 nM | 0.000166 s⁻¹ | 145000 M⁻¹ s⁻¹ |
